Numbering of substitutions follows the chain as printed. Names may count otherwise.
T1: GkDnaC replicative helicase WT (Geobacillus kaustophilus HTA426, UniProt Q5KU75 1-454)
T1 sequence: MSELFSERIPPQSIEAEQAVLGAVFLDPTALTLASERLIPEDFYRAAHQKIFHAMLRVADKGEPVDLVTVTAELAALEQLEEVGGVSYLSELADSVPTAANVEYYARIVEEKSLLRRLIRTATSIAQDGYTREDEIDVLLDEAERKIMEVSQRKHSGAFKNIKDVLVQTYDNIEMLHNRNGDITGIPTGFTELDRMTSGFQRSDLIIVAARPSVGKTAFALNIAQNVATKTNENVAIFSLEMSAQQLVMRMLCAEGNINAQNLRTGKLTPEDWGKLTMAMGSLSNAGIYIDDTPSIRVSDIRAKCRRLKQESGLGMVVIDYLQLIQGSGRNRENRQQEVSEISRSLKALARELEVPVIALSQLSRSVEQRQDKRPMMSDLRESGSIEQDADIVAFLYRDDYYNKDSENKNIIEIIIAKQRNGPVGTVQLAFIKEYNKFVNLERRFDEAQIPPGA

B1: GkDnaC R145K146A double mutant (enzyme, Geobacillus kaustophilus HTA426, UniProt Q5KU75 1-454, looked up)
chain: T1 sequence with R145A, K146A
B2: GkDnaC R120A (enzyme, Geobacillus kaustophilus HTA426, UniProt Q5KU75 1-454, looked up)
chain: T1 sequence with R120A
B3: GkDnaC R145A (enzyme, Geobacillus kaustophilus HTA426, UniProt Q5KU75 1-454, looked up)
chain: T1 sequence with R145A
B4: GkDnaC R117A (enzyme, Geobacillus kaustophilus HTA426, UniProt Q5KU75 1-454, looked up)
chain: T1 sequence with R117A
B5: GkDnaC R344A (enzyme, Geobacillus kaustophilus HTA426, UniProt Q5KU75 1-454, looked up)
chain: T1 sequence with R344A
B6: GkDnaC K50A (enzyme, Geobacillus kaustophilus HTA426, UniProt Q5KU75 1-454, looked up)
chain: T1 sequence with K50A
B7: GkDnaC R330A (enzyme, Geobacillus kaustophilus HTA426, UniProt Q5KU75 1-454, looked up)
chain: T1 sequence with R330A
B8: GkDnaC R332A (enzyme, Geobacillus kaustophilus HTA426, UniProt Q5KU75 1-454, looked up)
chain: T1 sequence with R332A
B9: Geobacillus kaustophilus HTA426 DnaC helicase, wild type (enzyme, UniProt Q5KU75 1-454, looked up)
chain: T1 sequence
B10: (dT)15 (ssDNA)
DNA: TTTTTTTTTTTTTTT

Molecular target: the molecule itself
Assay: SEC

Question: With B1 as the binder, how does the “stoichiometry N” value read?
Answer: 6

Question: B2 was tested. Which “stoichiometry N” value did it give?
Answer: 6

Question: How did the “stoichiometry N” value turn out when B3 was run?
Answer: 6

Question: For B4, which “stoichiometry N” value is on record?
Answer: 6

Question: How did the “stoichiometry N” value turn out when B5 was run?
Answer: 6

Question: For B6, which “stoichiometry N” value is on record?
Answer: 6

Question: B7 was tested. Which “stoichiometry N” value did it give?
Answer: 6

Question: With B8 as the binder, how does the “stoichiometry N” value read?
Answer: 6

Molecular target: the molecule itself
Assay: crystal structure

Question: How did the “stoichiometry N” value turn out when B9 was run?
Answer: 6

These binders were tested against T1, GkDnaC replicative helicase WT (assay: X-ray crystal structure).

Question: Does B10 bind?
Answer: binds

Reference: publication PMC2647316 (Nucleic Acids Research, 2008)
